# Values quoted from earlier work in PMC5951583.
# Read-outs that look alike come from different tables or passages of the source.
# Assays:
# [1] = biological target: Syt-II luminal domain (Rattus norvegicus) (UniProt P29101); assay: ITC
# [2] = biological target: Synaptotagmin-2 (Rattus norvegicus) (UniProt P29101); assay: ITC
# [3] = biological target: Synaptotagmin-2 (Rattus norvegicus) (UniProt P29101)
# [4] = biological target: Synaptotagmin-2 (Rattus norvegicus) (UniProt P29101); assay: SPR
# [5] = biological target: Syt-II (Rattus norvegicus) (UniProt P29101)
# [6] = biological target: Synaptotagmin-2 (Rattus norvegicus) (UniProt P29101); remark: listed apart in the source
substance,measurement,setting,value
BoNT/B HC (HCB) HC (from UniProt P10844),Kd,[1],34 nM
BoNT/B HC HC (from UniProt P10844),Kd,[2],34 nM
same,Kd,[3],7 nM
BoNT/B (from UniProt P10844),Kd,[4],0.6 nM
same,Kd,[5],7 nM
same,Kd,[6],0.23 nM
